# Source: patent US20260028587A1
# Target: human TMEM119 (transmembrane protein 119) (human) (UniProt Q4V9L6)
# Assay: flow cytometry on primary human brain cell suspensions
# UniProt Q4V9L6, sequence (Q4V9L6 26-283): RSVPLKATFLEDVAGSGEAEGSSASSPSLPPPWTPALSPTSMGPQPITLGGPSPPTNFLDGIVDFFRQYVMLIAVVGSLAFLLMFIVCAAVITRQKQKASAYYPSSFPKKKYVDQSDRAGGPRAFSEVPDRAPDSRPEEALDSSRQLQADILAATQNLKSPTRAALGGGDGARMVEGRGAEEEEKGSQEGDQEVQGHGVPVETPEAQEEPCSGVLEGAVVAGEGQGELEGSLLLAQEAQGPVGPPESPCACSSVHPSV
substance,measurement,value
Mouse anti-hTMEM119 monoclonal clone A16075D (antibody),percent of CD45+/CD11B+ human brain cells stained,70 to 98%
